Test: soluble on expression in E. coli; label from the status in PepcDB or PDB records
For “MDKVPQAVRDYLMEAHQLAAQWSLPNDRGDYINSKSIPIKSVAVIGGGTMGRGIAIAFCLSGFETYLVEVNNKAAEFCKNELEITYKREKAFRRLNDSKVEKLRKNLQITTDFQKLNNCDLIVEAVFEDMKLKKELFTKLDKICKPSCIFGTNTSSLDLNEMSSVLRDPTKVVGIHFFNPANLIRMVEVIYGSKTSSKAVATAFEACRSIKKLPVLVGNCPAFVFNRLLGVYLNQSQKLMYEYGYLPHQIDKIITNFGFLMGPLTVADMNGLDVMEKLKKENGWPASDFEKEVWRQKRYGRKTNKGYYKYDPNTHKKENDIEMEQLIRKFSSAASPNIQILNDQDAVNFLLYPMVNEGLLCIEEGIIHHESLIDIMFILGFGWPVATGGPMRFGWLQGIEKVASTIILWNSLEPNDRTYKVAATLQNVDRKNFAAKL”, the “soluble on expression in E. coli” value was “not soluble”. In the case of “SLQAINPNWNVPKNIHAFTTTREGGVSLAPYLSFNLGDHVGDNKSAVKTNRTLLVEKFGLPQTPIFLTQTHSTRVIQLPYSGQNLEADAVYTNVPNQVCVVMTADCLPVLFTTTSGNEVAATHAGWRGLCDGVLEETVKYFQAKPEDIIAWFGPAIGPKAFQVGIDVVEKFVVVDEKAKLAFQPDAIEEGKYLSNLYQIATQRLNNLGITQIYGGNHCTFNEKEKFFSYRRDNQTGRMASVIWFE”, the “soluble on expression in E. coli” value is reported as “soluble”. In the case of “MTSRVDPANPGSELDSAIRDTLTYSNSPVPNALLTASESGFLDAAGIELDVLSGQQGTVHFTYDQPAYTRFGGEIPPLLSEGLRAPGRTRLLGITPLLGRQGFFVRDDSPITAAADLAGRRIGVSASAIRILRGQLGDYLELDPWRQTLVALGSWEARALLHTLEHGELGVDDVELVPISSPGVDVPAEQLEESATVKGADLFPDVARGQAAVLASGDVDALYSWLPWAGELQATGARPVVDLGLDERNAYASVWTVSSGLVRQRPGLVQRLVDAAVDAGLWARDHSDAVTSLHAANLGVSTGAVGQGFGADFQQRLVPRLDHDALALLERTQQFLLTNNLLQEPVALDQWAAPEFLNNSLNRHR”, the “soluble on expression in E. coli” value is reported as “soluble”. With “MPKYYCDYCDTFLTHDSPSVRKTHNGGRKHKDNVRMFYQKWMEDQAQKLVDQTARAFATNRMQGAVPRTTMGMAPVPPVGHHPMMGGPPGMPMMAPRPFPGPGVGFPGAPGMPPFPGGPMGMAGPPGMPPMMPRPPQQFRPM” the “soluble on expression in E. coli” value was “not soluble”. In the case of “MGSDKIHHHHHHMRHAYRQFGPGTLYTVRLLRALDYLWRHLDEPLLLDRLAEEACFSRFHFHRLYRNLMGETVMESRQRMLLHRAAGELGRADRPLASVAVRAGFSSSAAFIRAFAGRYGETPGRYRQRRLMFLNQRERTMRQVEIVERDAVKVLMRHHRGPYMEIGKAFDALRAVQGPQQGVGAPSRSFGLYLDDQAQTPAADCRSIACATVPAFMEGKAMDGFEWGSIPAGRYAAVLHTGPYSELGECWDWLYRHWLPASGEMPGDTPCVEEYLNAPYDTPPAELKTLLLLSLA”, the “soluble on expression in E. coli” value is reported as “not soluble”. For “MGSDKIHHHHHHMKYNPHKYQTYATNFILEHPIAAVFLEMGLGKSVITLTAIFDLCLDSFEIGKVLVIAPLRVARDTWPAEINKWEHLKGLEFSVAIGTKQERLAALRKPASVYLINRENVDWLVNKSGIPFDYDMVVIDELSSFKSYGAKRFKSLLKVRPRAKRIVGLTGTPSSNGLMDLWAEFRILDMGKRLGRYITHYRNSFFTPDKRNQQIVFSYKPLPGAEDAIYQLISDITISMESVDFLKMPECMINEVPVYLNDKEQSVYDRFREEMVLEFADEEIDAMNAAVLSGKLLQMANGAIYDDDKNTHIIHDRKLDALEDLIEGANGKPVLIAYWYNHDLERIKAKFNVREIKTSKDIKDWNNGDISVAVIHPASAGHGLNLQSGGSTLIWFGLTWSLELYQQTNARLWRQGQNETVVIHHIITKGTIDEDVMNALRRKEKTQSDLINAVKANLGKARDAV”, the “soluble on expression in E. coli” value was “not soluble”. With “MAWGQIAVVSPLVNIPVNTIEQSLLRQLPGCWGCKDKDSVFRYVNQEYAELLGHASPEECIGKTDFEMSSPTTECAQEFQRQDKHVIETGESLKILDIHPYPDGRWRAHIFTKTPWRDEQGNTLGTIFYGRELTDTAVIEVGYWVCRAIGTDMNHQSIFRFSNLNPKPEKLTCREQETLFLLLYGKKPQFISQVMGISTKTVEGHVARLRNKFEANSKNELIDKAMEAGYGSVVPKTLLKHQLSVVLNGER” the “soluble on expression in E. coli” value was “not soluble”. In the case of “MEQKFCQSCGMPLNPEVLGTEKDGSKNEEYCTYCYADGHFTVECTMDEMINQCAQFVDEFNKGSEVKMTKEEAIANMKQFFPMLKRWKQ”, the “soluble on expression in E. coli” value is reported as “not soluble”.

Reference: the DeepSol protein solubility set
